One experiment concerns the target T1, human PRLR on cells (human, UniProt P16471 25-622).
T1 sequence: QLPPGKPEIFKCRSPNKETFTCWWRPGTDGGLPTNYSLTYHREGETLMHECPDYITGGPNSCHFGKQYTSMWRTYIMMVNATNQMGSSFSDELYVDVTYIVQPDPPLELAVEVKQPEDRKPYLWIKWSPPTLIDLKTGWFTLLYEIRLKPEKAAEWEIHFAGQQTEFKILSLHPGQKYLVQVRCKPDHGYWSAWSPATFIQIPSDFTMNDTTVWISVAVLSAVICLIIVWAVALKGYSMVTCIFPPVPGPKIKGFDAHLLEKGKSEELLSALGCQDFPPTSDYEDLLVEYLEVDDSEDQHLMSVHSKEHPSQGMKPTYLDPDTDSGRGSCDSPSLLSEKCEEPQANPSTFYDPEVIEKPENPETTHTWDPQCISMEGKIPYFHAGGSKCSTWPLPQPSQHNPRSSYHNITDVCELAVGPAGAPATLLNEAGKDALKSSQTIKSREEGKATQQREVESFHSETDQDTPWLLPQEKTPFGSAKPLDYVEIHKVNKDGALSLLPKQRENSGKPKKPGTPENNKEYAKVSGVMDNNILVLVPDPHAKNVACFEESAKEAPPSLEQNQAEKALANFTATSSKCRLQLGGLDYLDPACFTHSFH
As to the kind of experiment: cell-based or functional assay.

In experiment [1] the target is cyno PRLR on Baf3-cyPRLR cells (cyno). As to the kind of experiment: cell-based or functional assay.
For experiment [2], the target named is T2, mouse PRLR on Baf3-mPRLR cells (mouse, UniProt Q08501 20-608).
T2 sequence (looked up): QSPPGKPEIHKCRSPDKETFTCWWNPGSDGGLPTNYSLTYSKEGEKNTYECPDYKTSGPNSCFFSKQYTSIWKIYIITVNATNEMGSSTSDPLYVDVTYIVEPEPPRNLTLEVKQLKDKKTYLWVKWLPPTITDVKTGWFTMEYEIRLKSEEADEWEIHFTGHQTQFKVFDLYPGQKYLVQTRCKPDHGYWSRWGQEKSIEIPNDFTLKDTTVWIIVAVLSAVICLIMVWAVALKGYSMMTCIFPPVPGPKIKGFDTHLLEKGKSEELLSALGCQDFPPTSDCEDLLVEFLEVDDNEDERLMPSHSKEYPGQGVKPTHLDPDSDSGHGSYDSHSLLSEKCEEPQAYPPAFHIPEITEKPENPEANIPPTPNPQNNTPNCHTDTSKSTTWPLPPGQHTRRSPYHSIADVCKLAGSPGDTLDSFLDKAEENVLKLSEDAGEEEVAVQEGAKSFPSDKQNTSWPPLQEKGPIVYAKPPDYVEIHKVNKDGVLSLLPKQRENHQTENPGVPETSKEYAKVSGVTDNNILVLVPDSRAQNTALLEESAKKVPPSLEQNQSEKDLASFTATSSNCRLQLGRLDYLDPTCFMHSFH
The experiment can be described thus: cell-based or functional assay.

Experiment [3] has as its target T3, human PRLR (Biacore antigen) (human, UniProt P16471 25-234, limits assumed).
T3 construct: The construct injected over captured antibody is not described (a soluble form is likely); also called huPRLR
T3 sequence: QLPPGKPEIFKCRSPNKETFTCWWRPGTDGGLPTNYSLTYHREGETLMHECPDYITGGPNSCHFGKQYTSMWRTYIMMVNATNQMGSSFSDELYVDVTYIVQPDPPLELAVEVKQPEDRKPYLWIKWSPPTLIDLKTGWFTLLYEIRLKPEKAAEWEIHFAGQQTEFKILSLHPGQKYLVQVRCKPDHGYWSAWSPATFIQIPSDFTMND
The experiment can be described thus: SPR Biacore. (In SPR one partner is held on a chip, and binding of the other changes the refractive index at the surface.)

Experiment [4] concerns the target T4, murine PRLR (Biacore antigen) (murine, UniProt Q08501 20-229, limits assumed).
T4 construct: also called muPRLR
T4 sequence (looked up): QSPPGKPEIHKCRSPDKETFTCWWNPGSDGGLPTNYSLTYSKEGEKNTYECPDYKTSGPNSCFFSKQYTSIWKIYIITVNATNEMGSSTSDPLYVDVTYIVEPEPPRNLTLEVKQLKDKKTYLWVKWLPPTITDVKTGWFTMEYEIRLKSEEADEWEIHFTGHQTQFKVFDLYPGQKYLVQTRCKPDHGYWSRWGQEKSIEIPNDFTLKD
As to the kind of experiment: SPR Biacore. The procedure, abridged:
(§1)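 Association rate, dissociation rate and dissociation constant were measured by surface plasmon resonance on a Biacore instrument. PRLR antigen was tested at 600 nM, 66.67 nM and 7.41 nM, a 3-point, 9-fold dilution series. Constants came from a 1:1 binding model fit (local Rmax, mass-transport term included) in Biacore T200 Evaluation Software.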

For experiment [5], the target named is T5, cyno PRLR (Biacore antigen) (cyno, UniProt A0A2K5WXK1 25-234).
T5 construct: also called cyPRLR
T5 sequence: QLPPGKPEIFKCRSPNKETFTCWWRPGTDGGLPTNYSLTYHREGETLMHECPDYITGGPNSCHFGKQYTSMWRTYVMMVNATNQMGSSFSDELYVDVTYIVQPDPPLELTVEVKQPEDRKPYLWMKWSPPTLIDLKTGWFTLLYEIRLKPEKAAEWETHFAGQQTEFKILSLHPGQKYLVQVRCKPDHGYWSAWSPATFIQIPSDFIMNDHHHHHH
The experiment can be described thus: SPR Biacore. The procedure, abridged: as §1

The target of experiment [6] is T3, human PRLR (Biacore antigen). The experiment can be described thus: SPR Biacore. A digest of the protocol: as §1
The source holds these as a separate data set.

Experiment [7] addresses T6, human PRLR ECD-Fc fusion protein (human, UniProt P16471 25-233).
T6 construct: not shown: Fc region (captured by goat anti-human Fc)
T6 sequence: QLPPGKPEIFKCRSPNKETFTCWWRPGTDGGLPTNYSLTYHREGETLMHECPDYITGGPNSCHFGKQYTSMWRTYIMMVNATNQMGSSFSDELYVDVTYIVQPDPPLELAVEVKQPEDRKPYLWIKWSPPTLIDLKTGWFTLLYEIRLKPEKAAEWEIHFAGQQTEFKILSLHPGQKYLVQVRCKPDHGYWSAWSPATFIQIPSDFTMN
As to the kind of experiment: ELISA on ECD. A digest of the protocol:
(§2)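 EC50 values derive from fitted binding curves of antibody serial dilutions (1 h) on captured PRLR. Detection used an HRP-conjugated secondary (1 h), TMB development for 3–5 min, an H₂SO₄ stop and a 450 nm read, with all steps in Tween/PBS pH 7.4 buffer.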
(In general: In an ELISA, binding on a coated surface is turned into a signal by an enzyme label.)

Experiment [8] has as its target T7, cyno PRLR ECD-his6 protein (cyno).
T7 chain: T5 sequence
The experiment can be described thus: ELISA on ECD. The procedure, abridged:
as §2

Substitutions are numbered along the chain they refer to.

B1: Ab36 (antibody, human IgG1, kappa, V domains shown)
VH: EVQLVQSGAEVKKPGSSVKVSCKASGYTFTSYWIHWVRQAPGQGLEWMGEIDPSDSYTNYNQKFKGRVTITADKSTSTAYMELSSLRSEDTAVYYCARSFFTNWFAYWGQGTLVTVSS
VL: DVVMTQTPLSLSVTPGQPASISCRSSQSLVHSNGNTYLHWYLQKPGQSPQLLIYKVSNRFSGVPDRFSGSGSGTDFTLKISRVEAEDVGVYFCSQSTHVPFTFGGGTKVEIKR
notes: humanized from Ab7; G1; also called Ab4 HC.1 and Ab4 LC.1a
Consider B1, for which, in the experiment with human PRLR on cells, the “Baf3-hPRLR proliferation IC50” value came out at 0.28 µg/mL. Further, the “Baf3-cyPRLR proliferation IC50” value in [1] turned out to be 0.41 µg/mL. The “Baf3-mPRLR proliferation IC50” value in experiment [2] was > 30 µg/mL. In addition, in experiment [3], the “fold decrease in affinity against chAb7” value was ~45 fold. The Kd was 1140 nM in experiment [4], 8.51 nM in [5] and 8.13 nM in experiment [6]. In addition, the koff amounted to 0.0568 s⁻¹ in [4], 0.00114 s⁻¹ in experiment [5] and 0.00128 s⁻¹ in [6]. The kon in experiment [4] stood at 49800 M⁻¹ s⁻¹; in experiment [5] it was 133000 M⁻¹ s⁻¹; in experiment [6] it was 157000 M⁻¹ s⁻¹. For the same molecule, the EC50 was found to be 0.556 nM in experiment [7] and 0.538 nM in experiment [8].

B2: Ab55 (antibody, human IgG1, kappa, V domains shown)
VH: B1 VH with M48I, V68A, I70L, A72V, K74R, T76S, A97G
VL: B1 VL
notes: humanized from Ab7 (back mutations on Ab39); G1; also called Ab4 HC.1a.2 and Ab4 LC.1a
On to B2, for which the “Baf3-hPRLR proliferation IC50” value with human PRLR on cells is 0.92 µg/mL. Besides, the “fold weaker affinity than chAb7” value in experiment [3] was ~4 fold. Further, in experiment [4], the affinity, expressed as Kd, was 140 nM; the koff was found to be 0.0063 s⁻¹; the kon was found to be 44000 M⁻¹ s⁻¹. Also, in experiment [5], binding was characterised by a dissociation constant (Kd) of 0.59 nM, the koff was determined as 9.8e-05 s⁻¹ and the kon turned out to be 170000 M⁻¹ s⁻¹. In experiment [6], binding was characterised by a dissociation constant (Kd) of 0.67 nM, the koff is 0.00012 s⁻¹ and the kon worked out at 170000 M⁻¹ s⁻¹.

B3: Ab54 (antibody, human IgG1, kappa, V domains shown)
VH: B1 VH with M48I, V68A, I70L, A72V, T76S, A97G
VL: B1 VL
notes: humanized from Ab7 (back mutations on Ab39); G1; also called Ab4 HC.1a.3 and Ab4 LC.1a
Regarding B3, the “Baf3-hPRLR proliferation IC50” value with human PRLR on cells came out at 0.77 µg/mL. Moreover, the “fold weaker affinity than chAb7” value in experiment [3] was ~5 fold. In [4], this molecule came in with a Kd of 170 nM, a koff of 0.007 s⁻¹ and a kon of 41000 M⁻¹ s⁻¹. Also, in [5], the Kd was found to be 0.85 nM, the koff turned out to be 0.00012 s⁻¹ and the association rate constant (kon) was 140000 M⁻¹ s⁻¹. In experiment [6], this molecule registered a Kd of 1 nM, a koff of 0.00014 s⁻¹ and a kon of 140000 M⁻¹ s⁻¹.

The term Kd denotes the free concentration of one partner at which half of the binding sites on the other are occupied at equilibrium, for simple one-to-one binding. Read a high Kd as lower affinity. As a reminder, the koff is a measure of how fast the partners let go of each other. Lower therefore signals slow dissociation. The kon is the rate constant with which the complex forms. A low value points to slow association. Usually EC50 stands for the concentration needed to bring the measured effect to its halfway point. Low readings indicate a more potent agent, high ones a less potent agent.

For the origin of these results see patent publication US20170022281A1 (AbbVie / Abbott, published 2017).
